Test results reported in patent US20220242962A1 (APTEVO RESEARCH AND DEVELOPMENT, published 2022).
Substitutions are numbered along the chain they refer to. Names may count otherwise.

Legend:
Full-length Human OX40 = biological target: T1, Full-length Human OX40 (human, UniProt P43489 29-277); test: cell-based or functional assay
T1 sequence: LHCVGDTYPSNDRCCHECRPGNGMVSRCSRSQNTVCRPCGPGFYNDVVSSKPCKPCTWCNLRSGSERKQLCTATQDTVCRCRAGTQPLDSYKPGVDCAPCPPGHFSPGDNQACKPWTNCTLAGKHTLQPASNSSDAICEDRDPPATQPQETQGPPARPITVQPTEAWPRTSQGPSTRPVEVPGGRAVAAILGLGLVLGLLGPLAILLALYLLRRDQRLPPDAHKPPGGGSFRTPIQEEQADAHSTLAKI

Full-length Human 4-1BB = Full-length Human 4-1BB (human, UniProt Q07011 24-255); test: cell-based or functional assay
Full-length Cyno OX40 = biological target: T2, Full-length Cyno OX40 (cynomolgus monkey, UniProt P43489 29-277 (human entry)); test: flow cytometry on CHOK1SV cells transfected with cynomolgus OX40, goat anti-human Fc secondary antibody, MFI (Mean)
T2 construct: on CHO-K1SV cells; also called OXF004; cynomolgus OX40
T2 chain: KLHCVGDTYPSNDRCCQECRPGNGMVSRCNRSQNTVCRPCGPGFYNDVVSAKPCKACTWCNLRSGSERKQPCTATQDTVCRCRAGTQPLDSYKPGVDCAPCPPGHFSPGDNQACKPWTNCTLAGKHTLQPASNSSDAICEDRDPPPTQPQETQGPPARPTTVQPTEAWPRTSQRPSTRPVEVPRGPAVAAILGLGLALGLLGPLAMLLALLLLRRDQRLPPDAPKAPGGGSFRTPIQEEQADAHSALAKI
Procedure: Serial dilutions of ADAPTIR™ constructs were incubated with cells transfected with human or cynomolgus ECD and subsequently labelled with a fluorescently-conjugated goat-α-human Fc secondary antibody. […] (See Example 16.)

Fc gamma receptor RIIIB [1] = biological target: T3, Fc gamma receptor RIIIB (human, UniProt O75015 17-200); test: SPR, construct immobilized, receptor injected at 2 uM
T3 construct: soluble SPR analyte

C1Q = biological target: T4, C1Q (UniProt P02745 23-245; P02746 28-253; P02747 29-245); test: SPR, Fc captured, C1Q as analyte
T4 construct: also called complement C1Q
Procedure: (§1) Fc mutations to be potentially integrated into an ADAPTIR™ bispecific construct were analyzed for binding to the common Fc receptors (human and cyno) and C1Q, which is a component of the complement activation system. SPR experiments were conducted at 25° C. in HBS-EP+ buffer on a Biacore T200 system.
(§2) For these experiments, all four flow cells of a CM5 sensor chip were immobilized with goat F(ab′)2 anti-human Fc (Jackson ImmunoResearch) to a response level of ˜4000 RU. Fc variants and wild type Fc were diluted to 100 nM in HBS-EP+ and captured on the surface of the chip for 120 seconds at a flow rate of 10 μL/min. Fcγ receptors (human and cyno, all purchased from R&D Systems) and complement (C1Q, purchased from Quidel Corporation and Complement Technology, Inc) were diluted in HBS-EP+ and then flowed as analytes at 30 μL/min for 120 seconds followed by a 120 seconds dissociation. Regeneration was achieved by flowing 10 mM glycine pH 1.7 at 30 μL/min for 30 seconds followed by a 60 seconds stabilization. Flow cell 1 was always left as a blank (no captured protein) for purposes of background signal subtraction. Blank-subtracted sensorgrams for each captured Fc variant were inspected for the presence of binding to any of the Fcγ receptor proteins or complement. There are polymorphisms in the Human Fc receptors IIA and RIIIA, so both sequences were tested for binding.

[2] = biological target: T5, Fc gamma receptor RIIA R167 (human, UniProt P12318 36-218); test: SPR, Fc captured, receptor as analyte
T5 construct: soluble SPR analyte
T5 sequence (looked up): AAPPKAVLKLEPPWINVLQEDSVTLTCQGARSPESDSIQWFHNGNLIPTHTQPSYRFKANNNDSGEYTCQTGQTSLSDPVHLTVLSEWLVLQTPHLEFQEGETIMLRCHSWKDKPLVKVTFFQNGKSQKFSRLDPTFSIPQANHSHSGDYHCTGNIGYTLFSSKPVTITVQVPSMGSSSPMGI
Procedure: as §1, §2

[3] = biological target: T6, Fc gamma receptor RIIA H167 (human, UniProt P12318 36-218); test: SPR, Fc captured, receptor as analyte
T6 construct: soluble SPR analyte
T6 sequence (looked up): T5 sequence (looked up) with R132H
Procedure: as §1, §2

Fc gamma receptor RIIB/C = biological target: T7, Fc gamma receptor RIIB/C (human, UniProt P31994 46-217); test: SPR, Fc captured, receptor as analyte
T7 construct: soluble SPR analyte
T7 sequence (looked up): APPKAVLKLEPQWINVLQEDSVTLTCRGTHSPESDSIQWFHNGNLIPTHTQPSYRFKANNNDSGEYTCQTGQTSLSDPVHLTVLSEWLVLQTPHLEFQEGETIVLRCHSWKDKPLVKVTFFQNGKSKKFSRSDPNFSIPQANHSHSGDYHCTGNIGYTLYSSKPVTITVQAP
Procedure: as §1, §2

Fc gamma receptor RIIIB [4] = biological target: T3, Fc gamma receptor RIIIB; test: SPR, Fc captured, receptor as analyte
Procedure: as §1, §2

Cyno RI = biological target: T8, Cyno RI (cynomolgus monkey, UniProt Q8SPW5 16-292); test: SPR, Fc captured, receptor as analyte
T8 construct: also called cyno RI receptor
Procedure: as §2

Cyno RIII = biological target: T9, Cyno RIII (cynomolgus monkey, UniProt Q8SPW2 17-208); test: SPR, Fc captured, receptor as analyte
T9 construct: extracellular domain
Procedure: as §2

T3 sequence (O75015 17-200): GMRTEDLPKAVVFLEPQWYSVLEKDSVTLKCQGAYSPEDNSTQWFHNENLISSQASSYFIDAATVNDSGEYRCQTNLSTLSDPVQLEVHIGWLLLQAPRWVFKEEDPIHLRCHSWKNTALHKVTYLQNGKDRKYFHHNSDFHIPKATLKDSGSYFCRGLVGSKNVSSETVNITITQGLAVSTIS
Chain of Full-length Human 4-1BB (Q07011 24-255): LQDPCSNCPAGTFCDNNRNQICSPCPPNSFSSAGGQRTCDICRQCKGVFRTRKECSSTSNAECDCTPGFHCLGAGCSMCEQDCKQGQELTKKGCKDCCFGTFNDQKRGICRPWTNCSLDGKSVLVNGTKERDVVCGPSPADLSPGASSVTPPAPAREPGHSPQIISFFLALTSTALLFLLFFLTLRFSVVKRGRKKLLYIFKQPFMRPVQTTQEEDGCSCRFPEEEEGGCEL
T9 sequence (Q8SPW2 17-208): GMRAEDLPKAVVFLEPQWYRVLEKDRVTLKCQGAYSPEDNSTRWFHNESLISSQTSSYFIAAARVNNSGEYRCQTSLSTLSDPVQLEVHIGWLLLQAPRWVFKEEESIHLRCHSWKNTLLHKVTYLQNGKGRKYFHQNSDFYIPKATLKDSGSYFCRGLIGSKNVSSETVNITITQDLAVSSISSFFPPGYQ
T4 sequence (P02745 23-245 limits assumed, chain 1 of 3): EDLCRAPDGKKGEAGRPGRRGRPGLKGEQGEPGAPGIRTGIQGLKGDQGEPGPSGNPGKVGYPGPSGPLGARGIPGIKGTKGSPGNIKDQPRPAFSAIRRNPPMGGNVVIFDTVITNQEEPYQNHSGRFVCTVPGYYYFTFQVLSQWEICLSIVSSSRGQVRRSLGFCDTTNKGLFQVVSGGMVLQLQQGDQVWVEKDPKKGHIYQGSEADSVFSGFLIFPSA
T4 sequence (P02746 28-253 limits assumed, chain 2 of 3): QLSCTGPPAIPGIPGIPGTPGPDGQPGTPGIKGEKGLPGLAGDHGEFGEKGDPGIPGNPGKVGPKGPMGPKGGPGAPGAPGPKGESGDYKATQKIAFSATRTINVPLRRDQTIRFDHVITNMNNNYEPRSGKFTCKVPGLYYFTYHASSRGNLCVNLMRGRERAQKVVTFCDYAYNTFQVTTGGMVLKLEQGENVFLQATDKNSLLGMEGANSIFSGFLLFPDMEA
T4 sequence (P02747 29-245 limits assumed, chain 3 of 3): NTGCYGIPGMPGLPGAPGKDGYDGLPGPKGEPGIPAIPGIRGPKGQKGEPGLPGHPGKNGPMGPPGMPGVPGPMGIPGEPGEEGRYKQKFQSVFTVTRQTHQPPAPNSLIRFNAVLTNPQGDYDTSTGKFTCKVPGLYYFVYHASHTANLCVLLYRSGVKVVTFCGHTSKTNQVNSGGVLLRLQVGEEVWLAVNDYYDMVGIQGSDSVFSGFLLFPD
T8 sequence (Q8SPW5 entry or part of it limits assumed): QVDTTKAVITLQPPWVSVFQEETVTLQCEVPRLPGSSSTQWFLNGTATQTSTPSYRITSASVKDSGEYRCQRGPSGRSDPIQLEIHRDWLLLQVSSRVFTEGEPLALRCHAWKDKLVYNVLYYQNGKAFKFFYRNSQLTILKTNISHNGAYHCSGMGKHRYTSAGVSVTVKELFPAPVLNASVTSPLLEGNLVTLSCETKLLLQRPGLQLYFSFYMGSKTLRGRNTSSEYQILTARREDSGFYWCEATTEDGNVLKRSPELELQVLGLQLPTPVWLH

B1: FXX01066 (bispecific antibody)
chain: EVQLVQSGAEVKKPGASVKVSCKASGYTFTSYWMNWVRQAPGQGLEWMGNIYPSGGSTNYAQKFQGRVTMTVDTSTSTVYMELSSLRSEDTAVYYCASFSDGYYAYAMDYWGQGTLVTVSSGGGGSGGGGSGGGGSGGGGSEIVMTQSPATLSLSPGERATLSCRASQSVSSYLNWYQQKPGQAPRLLIYYASRRHTGIPARFSGSGSGTDFTLTISSLQPEDFAVYYCQQGYNLPYTFGQGTKVEIKEPKSSDKTHTCPPCPAPPAAAPSVFLFPPKPKDTLMISRTPEVTCVVVDVSHEDPEVKFNWYVDGVEVHNAKTKPREEQYNSTYRVVSVLTVLHQDWLNGKEYKCAVSNKALPAPIEKTISKAKGQPREPQVYTLPPSRDELTKNQVSLTCLVKGFYPSDIAVEWESNGQPENNYKTTPPVLDSDGSFFLYSKLTVDKSRWQQGNVFSCSVMHEALHNHYTQKSLSLSPGGGGSPSSYVLTQPPSVSVAPGQTARITCGGNNIGSKSVNWFQQKPGQAPVLVVYDDSGRPSGIPERFSGSTSGNTATLTISRVEAGDEADYYCQVWDSSSDHVVFGGGTKLTVLGGGGSGGGGSGGGGSGGGGSQVQLVESGGGVVQPGRSLRLSCAASGFTLSYYGMHWVRQAPGKGLEWVAAISHDGSDKYYADSVKGRFTISRDNSKNTLYLQMNSLRAEDTAVYYCSNDQFDPWGQGTLVTVSSR
notes: ADAPTIR scFv-Fc-scFv, anti-4-1BB (VH-VL) N-terminal, anti-OX40 C-terminal, PAA (del) Fc; also called FX01066
OX40 Reporter Assay EC50 (Full-length Human OX40): 0.012 nM | OX40 Reporter Assay Max induction (Full-length Human OX40): 534000 | 4-1BB Reporter Assay EC50 (Full-length Human 4-1BB): 0.019 nM | 4-1BB Reporter Assay Max induction (Full-length Human 4-1BB): 6.1e+06 | EC50 (read off the curve) (Full-length Cyno OX40): ~2 nM

B2: FXX01115 (bispecific antibody)
chain: B1 chain with I541V, E543N, T690R
notes: ADAPTIR anti-4-1BB x anti-OX40, pI variant; PAA (del) Fc
Max RU value during association (Fc gamma receptor RIIIB [1]): 0 RU

B3: TSC 1005 (other)
chain: EPKSSDKTHTCPPCPAPPVAAPSVFLFPPKPKDTLMISRTPEVTCVVVDVSHEDPEVKFNWYVDGVEVHNAKTKPREEQYNSTYRVVSVLTVLHQDWLNGKEYKCAVSNKALPAPIEKTISKAKGQPREPQVYTLPPSRDELTKNQVSLTCLVKGFYPSDIAVEWESNGQPENNYKTTPPVLDSDGSFFLYSKLTVDKSRWQQGNVFSCSVMHEALHNHYTQKSLSLSPG
notes: IgG1 Fc with E233P, L234V, L235A, deletion of G236, G237A, K322A (EU); also called PVAdel TSC01005
binding result (C1Q): no binding | binding result [2]: no binding | binding result [3]: no binding | binding result (Fc gamma receptor RIIB/C): no binding | binding result (Fc gamma receptor RIIIB [4]): no binding | binding result (Cyno RI): no binding | binding result (Cyno RIII): no binding
